Laboratory results: the nanobody polyreactivity screen of Harvey et al. (2022)

Assay: yeast display, Sf9 membrane polyspecificity reagent, FACS + sequencing; frameworks hold sequencing errors
Outline: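 After 36–48 hours of galactose induction, yeast (Saccharomyces cerevisiae BJ5465) displaying a synthetic nanobody library were stained at 4 °C for 1 hour with 10% biotinylated, detergent-solubilized Sf9 membrane reagent. Streptavidin microbeads enriched the stained cells before FACS sorting into low and high (top ~1%) gates on anti-HA and streptavidin fluorescence. Each clone's polyreactivity label reflects its gate of origin.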

| Sequence | polyreactivity (PSR sort gate) |
| --- | --- |
| QVQLVESWGGLVQAGGRLRLSCAASGIIFHRNAMGWYRQAPGKQRELVAAISERGGSTYYADSVKGRFTISRDNAKNTVYLQMNSLKPEDTAVYYCIADGFYRGGYWGQGTQVTVSS | low polyreactivity |
| QLQLVESGGGLVQAGGSLRLSCAASGYTFTSYTKGWYRQAPGKEWELVAAITWTGGRTYYADSVKGRFTISRDNAKNTVYLQMNSLKPEDTAVYFCAGSWRKVDYWGQGTQVTVSS | high polyreactivity |
| QVQLVESGGGLVQAGGSLRLSCAASGNTFYGYVMGWYRQAPGKERELVAAISWSGGRTYYADSVKGRFTISRDNAKNTVYLQMNSLKPEDTAVYYCAAVLLYYIYDYWGQGTQVTVSS | low polyreactivity |
| QVQLVESGGGLVQAGGSLLLSCAASGGTFYYYAMGWYRQAPGKERELVASISSRGGSTYYADSVKGRFTISRDNAKNTVYLQMNSLKPEDTAVYYCAARSLYSGFGYWGQGTQVTVSS | high polyreactivity |
| QVQLVESGGGLVQAGGSLRLSCAASGSIFWLYAMGWYRQAPGKESELVAAIDSGDSTKYADSVKGRFTISRDNAKNTVYLQMNSLKPEDTAVYYCNASRRYHVRAPYDYWGQGTQVTVSS | low polyreactivity |
| QVQLVESGGGLVQAGGSLRLSCAASGYTFRSNTMGWYRQAPGKERELVAAISGRGSSTYYADSVKGRFTISRDNAKNTVYLQMNSLKPEDTAVYYCAAQSKYYQYYSWGQGNQVTVSS | high polyreactivity |
| QFQLVESGGGLVQAGGSLRLSCAASGSTFVPNTMGWYRQAPGIERELVAAITYSGGSTYYADSVKGRFTISRDNAKNTVYLQMHSLKPEDTAVYYCAAEGTTWYYDMDYWGQGTQVTVSS | low polyreactivity |
| QVQLVESGGGLVQAGGSLRLSCAASGRTFRRYVMGWDRQSPGKERQLVAAIRWTGGSTYYADSVKGRFTISRDNAKNTVYLKMNSLKPEDTEVYYCAAYIRWSGGFDYWGQGTQVTVSS | high polyreactivity |
| QVQLVESGGGLVQPGGSLRLSCAASGSTFIEYSMGWYRQAPGKERELVATIRGTGSTNYADSVKGRFTISRDNAKNTVYLQMNSLKPEDTAVYYCMKKPDPRWYYWGDYWGQGTQVTVSS | low polyreactivity |
| QVQLVESGGGLVQAGGSLRLRCAASGLTFRKYPMGWYRPAPGKERELVATISRNGGSTYSADSVKGRFTISSDNAKITVYLQMNSLKPEDTAVYYCAADYYTYDYAGYGYWGQGTQVTVSS | high polyreactivity |
| QVQLVESGGGLVQAGGSLRLSCAASGFIFQSYAMGWYRQAPGKERELVASITRSGGSTYYADSVKGRFTISRDNAKNTVYLQMNSLKPEDTAVYYCNTYRNHYGWRKFNYWGQGTQVTVSS | high polyreactivity |
| QVQLVESGGGLVQAGGSLRLSCAASGRTFAIYAMGWYRQAPGKERELVAAIRKRGSITYYADSVKGRFTISRDNAKNTVYLQMNSLKPEDTAVYYCAVDYWGQGTQVTVSS | high polyreactivity |
| QVQLVESGGGLVQAGGSLRLSCAASGFIFLYYAMGWNTQSPGKERELVADISRGADTKYADSVKGRFTISRDNAKNTVYLQMNSLKPEDTAVYYCATDITTFWFPYPGVELGYWGQGSQVTVSS | low polyreactivity |
| QVQLVESGGGLVQGGGSLRLSCAASGNILRIYAMGWYRQAPGKEREFVAAIRQSDGRTYYADSVKGRFTISRDNAKNTVYLQMNSLKPEDTSVYYCAADVYQEYDYWGQGTQVTVSS | high polyreactivity |
| QVQLVESGAGLVQAGGSLRLSCAASGFIFAGYAMGLYRQAPGKERELFAAISSRGGSTYYADSVKGRFTISRDNAKNPVDLQMNSLKPEDTAVYYCNKYYYGFTPVGYKKMDYWGQGTQVIVSS | low polyreactivity |
| QVQLVESAGGLVQAGVRLRLSCAASGRTFVCNAMGSYRQAPGKERELVADITWSGDITYYADSVKGRFTISRDNAKNTVYLQMNSLKPEDTAVYYCAADYHRRLTDYDYWGQGTQVTVSS | low polyreactivity |
| QVQLVESGGGLVQAGGSLRLSCAASGSTFGRNAMGWYRQAPGKERELVASITSRGTSTYADSVKGRFTISRDNAKNTVYLQMNSLKPEDTAVYYCAAGVISYRRRSYYYWGQGTQVTVSS | high polyreactivity |
| QVQLVESGGGLVQAGGSLRLSCAASGRITGINAMGWYRPAPGKERELVAAITWRGGRKYYADSVKGRFTISRDNAKNTVYLQMNSLKPEDTAVYYCAAELQGAYYFAYYYWGQGTQVNVSS | high polyreactivity |
| QVQLVESGGGLVQAGGSLRLSCAASGRIINYYAMGWYRPAPGKERELVAGISWSGGSTSYADSVKGRFTISRDNAKNTVYLQMNSLKPEDTAVYYCAAGVFKAFYYWGQGTQVTVSS | low polyreactivity |
| QVQLVESGGGLVQAGGSLRLSCAASGSIFPFYAMGWYRKAPGKERELVAAISDRGGSTYYADSVKGRFTISRDNAKNTVYLQMNSLKPDDTAVYYCAKGAEVSQGYTDEYDYWGQGTQVTVSS | low polyreactivity |
| QVQLVDSGGGLVQAGGSLRLSCAASGRTFRYYDMGWYRPAPGEVREFVAAITWRGGSTYYADSVKGRFTISRDNAKNTVYSQMNSLKPEDTAVYYCATDSLRLYGGKRDLYYWGQGTQVTVSS | low polyreactivity |
| QVQLVESGGGLVQAGGSLRLSCAASGNTFSYNAMGWYRQAPGKEKELVAGITWSGGSTYYADSVKGRFTISRDNAKNTVYLQMNSLKPEDTAVYYCAKGYGSGVVRSRWSKYGYWGQGTQVTVSS | high polyreactivity |

| Sequence | polyreactivity (PSR sort gate) |
| --- | --- |
| QVQLVESGGGLVQAGGSLRLSCAASGSTFVSYAMGWYRQAPGKERELVAASSRSGGSTYYADSVKGRFTISRDNAKNTVYLQMNILIPEDTAVYYCAADGRGPSKRNRDYWGQGTQVTVSS | high polyreactivity |
| QVQLVESGGGLVQAGGSLRLSCAASGFTFIDYAMGWYRQAPGKERALVAAITSRGGSTYYADSVKGRFTISRDNAKNTVYLQMNSLKPEDTAVYYCNAGSSFWYAYEYWGQGTQVTVSS | high polyreactivity |
| QVQLVESGGGLVQAGGSLRLSCAASGIIFRWYTMGWFRQAPGKERELVAAITGRGGSTYYADSVKGRFTISRDNAKNTFYLQMNSLIPEDTAVYYCAAEGVRIGTRYDYWGQGTLVTVSS | high polyreactivity |
| QVQLVESGGGLVQAGGSLRLSCAASGSIFGSYAMGWYRPAPGKERELVAGITYRGSSTYYADSVKGRFTISRDNAKNTVYLQMNSLKPEDTAVYYCAADSVFDEYDYWGQGTQVTVSS | low polyreactivity |
| QVQLVESVGGLVQAGGSLRLSCAASGSIFTWYAMGWYRQAPRKERELVAAITRGGSTYADSVKGRFTISRDNAKNTVYLQMNSLKPEDTAVYYCNAVYGVYDFNYWGQGTQVTVSS | low polyreactivity |
| QVQLVESGGGLVQAGGSLRLSCAASGSIFYSNVMGWYRQAPGKERELVARITDAGSTNYADSVKGRFTISRDNAKNTVYLQMNSLKPEDTAVYYCNARLVIYTYDYWGQGTQVTVSS | low polyreactivity |
| QVQLVESGGGLVQAGGSLRLSCAASGRTFGGNAMGWYRQAPGKERELVAAITGRGGSTYYADSVKGRFTISRDNAKNTVYLQMNSLKPEDTAVYYCAKQFKRGYGYDYWGQGTQVTVSS | low polyreactivity |
| QVQLVESGGGLVQAGGSLRLSCAASGSTFTYYAMGWYRQAPGKERELVAAISRGGRTNYADSVKGRFTISRDNAKNTVYLQMNSLKPEDTAVYFCAAVVFRTGIWFDYWGQGTQVTVSS | high polyreactivity |
| QVQLVESGGGLVQAGGSLRLSCAASGSIFNAYAMGWYRQAPGKERELVAVISRPGGSTYYADSVKGRFTISRDNAKNTVYLQMNSLKPEDTAVYYCNVYYPYKHRYYHLDYWGQGTQVTVSS | high polyreactivity |
| QVQLVESGGGIVQAGGSLRLSCAASGSTFFIYAMGWYRQAPGKERELVAAISGSGGTTYYADSVKGRFTISRDNAKNTVYLQMNSLKPEDTAVYYCAARTFSAFWRGGYDYWGQGTQVTVSS | low polyreactivity |
| QVQLVESGGGLVQAGGSLRLSCAASGRTFYGYAMGWYRQAPGKERELVATITRRGGSTYYADSVKGRFTISRDNAKNTVYLQMNSLKPEDTAVYYCARQGDQYYRDGDDYWGQGTQVTVSS | high polyreactivity |
| QVQLVESGGGLVQAGGSLRLSCAASGIIFSDYAMGWYRQAPGKERELVAAITGGGSTYYADSVKGRFTISRDNAKKTVDLQMNSLKPEDTAVFYCNADWARLWIRSTEVDYWGQGSQVTVSS | low polyreactivity |
| QVQLVESGGGLVQAGGSLRLSCAASGFTFSTYAMGWYRQAPGKESELVAVISGGDSTSYADSVKGRFTISRDNAKNTVYLQMNSLKPEDTAVYYCAADRYGGYYGDTYYTGLFNYWGQGTQVTVSS | high polyreactivity |
| QFQLVESGGGLVQAGGSLRLSCAASGSIFSINAMGWYRQAPGKERELVAVISWIGGNTYYADSVKGRFTISRDNAKNTVYLQMNSLKPEDTAVYYCAVATGPVSYRRYYWGQGTQVTVSS | high polyreactivity |
| QVQLVESGGGLVQAGGSLRLSCAASGSTFYYKSMGWYRQAPGKERELVAAITFTGGSTYADSVKGRFTISRDNAKNTVYLQMNSLIPEDTAVYYCAATIQGHDYLGTGYDYWGQGTQVTVSS | low polyreactivity |
| QVQLVESGGGLVQAGGSLRLSCAASGSTFDTYAMGWYRPAPGKERELVAAISRSGTSTYYADSVKGRFTISRDNAKNTVYLQMNSLKPEDSAVYYCAAYGPRVNGEIGREYYYWGQGTQVTVSS | low polyreactivity |
| QVQLEESGGGLVQAGGSLRLSCAAYGSTFSYNAMGGSRPAPGTQRELVAAITSSGSSTYYADSVKGRFTISRYNAKNTVYFQMNSLKPEDTAVYYCNAEVLFVAGQVQRNSGDYWGQGTQVTVSS | low polyreactivity |
| QVQLVESGGGLVQAGGSLRLSCAASGFSIAYYAMGWYRQEPGKERELVAAISRRGGSTYYADSVKGRFTISRDNAKNTVYLQMNSLKPEDTAVYYCAKAHYLSDYNYWGQGTQVTVSS | high polyreactivity |
| QVQLVESGGGLVQAGGSLRLSCAASGRIFHANAMGWYRQAPGKERELVAGISRNGGRTYYADSVKGRFTISRDNAKNTVYLQMNSLKPEDTAVYYCAKGHKFRFDYWGQGTQVTVSS | high polyreactivity |
| QVQLLESGGGLVQAGGSRRLSCASSGITFAFYAMGWYRQAPGKESELVAAISWSGTRTYYADSVKGRFTISRDNAKNTVYLQMNRLKPEDTAVYYCAAVYQAGDKLYDYWGQGTQVTVSS | low polyreactivity |
| QVQLVESGGGLVQAGGSLRLSCAASMGWYRQAPGKERELVAITRTTRTYYADSVKGRFTISRDNAKNTVYLQMNSLKPVDTAVYYCAAPNGPSPYWYNYWGQGTQVTVSS | low polyreactivity |
